Results reported in patent US20160369011A1 (EISAI R AND D MANAGEMENT, published 2016).
Numbering of substitutions follows the chain as printed.

T1: human endosialin/TEM1 extracellular domain fused to mouse IgG2b Fc (human)
T1 construct: also called TEM1-Fc
T1 chain: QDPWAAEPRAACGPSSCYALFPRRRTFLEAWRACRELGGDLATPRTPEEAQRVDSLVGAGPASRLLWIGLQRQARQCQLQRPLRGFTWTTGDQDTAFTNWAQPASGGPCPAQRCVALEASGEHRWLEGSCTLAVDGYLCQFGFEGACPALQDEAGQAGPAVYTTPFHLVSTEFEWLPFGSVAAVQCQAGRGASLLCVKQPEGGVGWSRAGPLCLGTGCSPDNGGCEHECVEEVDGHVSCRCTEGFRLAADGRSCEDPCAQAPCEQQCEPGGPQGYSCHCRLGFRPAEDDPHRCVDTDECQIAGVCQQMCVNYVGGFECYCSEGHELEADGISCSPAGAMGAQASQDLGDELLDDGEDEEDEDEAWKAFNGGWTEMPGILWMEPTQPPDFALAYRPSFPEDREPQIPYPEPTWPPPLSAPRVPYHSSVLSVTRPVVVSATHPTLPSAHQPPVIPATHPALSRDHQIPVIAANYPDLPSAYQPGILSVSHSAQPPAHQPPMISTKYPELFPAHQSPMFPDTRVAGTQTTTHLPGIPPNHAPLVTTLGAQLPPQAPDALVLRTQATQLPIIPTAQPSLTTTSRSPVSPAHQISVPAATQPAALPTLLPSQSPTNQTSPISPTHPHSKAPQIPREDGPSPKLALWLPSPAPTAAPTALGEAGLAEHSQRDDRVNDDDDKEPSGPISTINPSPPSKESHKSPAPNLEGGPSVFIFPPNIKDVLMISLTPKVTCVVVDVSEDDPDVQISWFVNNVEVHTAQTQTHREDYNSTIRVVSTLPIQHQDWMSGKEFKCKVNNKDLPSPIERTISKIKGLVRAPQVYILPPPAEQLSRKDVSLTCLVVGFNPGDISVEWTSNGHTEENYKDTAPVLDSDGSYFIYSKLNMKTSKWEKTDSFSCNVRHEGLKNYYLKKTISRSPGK

B1: xi155D5/xi1-55-2 bivalent/bispecific antigen-binding molecule (bispecific antibody)
heavy 1: QSVKESGGRLVTPGTPLTLTCTVSGFSLNSYAMIWVRQAPGEGLEYIGFITTGGTTYYASWAKGRFTISRTSTTVDLKLTRPTTEDTATYFCARDRVKSYDDYGDLDAFEPWGPGTLVTISS
light 1: ELVMTQTPSSVSAAVGGTVTINCQASQSISSYLAWYQQKPGQPPKLLIYYASTLASGVPSRFKGSGSGTEFTLTITGVQCDDAATYYCLGVYGYSFDDGIAFGGGTELEIKRTVAAPSVFIFPPSDEQLKSGTASVVCLLNNFYPREAKVQWKVDNALQSGNSQESVTEQDSKDSTYSLSSTLTLSKADYEKHKVYACEVTHQGLSSPVTKSFNRGEC
heavy 2: QSVEESGGDLVKPEGSLTLTCTASGFSFSSSYWGCWVRQAPGKGPEWIACIYGGSSGTTYYPNWAKGRFSISKTSSTTVTLQMASLTAADTATYFCARVTNGGDWDFKLWGPGTLVTISS
light 2: ELVMTQTPASVEVAVGGTVTIKCQASQSINTYLAWYQQKPGQPPKLLIYRASTLASGVPSRFKGSGSGTEFTLTISDLECADAATYYCQQSVRVIDVDNTFGGGTEVVVKRTVAAPSVFIFPPSDEQLKSGTASVVCLLNNFYPREAKVQWKVDNALQSGNSQESVTEQDSKDSTYSLSSTLTLSKADYEKHKVYACEVTHQGLSSPVTKSFNRGEC
modifications: maleimido-PEG4-azide on Cys80, joined by copper-free click chemistry to the DBCO on Cys80 of the xi155D5 light chain; maleimido-PEG4-dibenzylcyclooctyne (DBCO) on Cys80, joined by copper-free click chemistry to the azide on Cys80 of the xi1-55-2 light chain
notes: Two papain Fabs linked chemically through their light chain Cys80 residues; mass 95,939 Da by mass spectrometry; also called biFab; bivalent/bispecific Fab-Fab; not shown: human IgG1 CH1 and hinge up to the papain cleavage site
B2: xi1-55-2 Fab (Fab, V domains shown)
VH: B1 heavy 2
VL: ELVMTQTPASVEVAVGGTVTIKCQASQSINTYLAWYQQKPGQPPKLLIYRASTLASGVPSRFKGSGSGTEFTLTISDLECADAATYYCQQSVRVIDVDNTFGGGTEVVVKR
notes: Made from xi1-55-2 by limited papain digestion and protein A removal of Fc; Fabs were fully decapped; not shown: human IgG1 CH1 and hinge up to the papain cleavage site
B3: xi155D5 Fab (Fab, V domains shown)
VH: B1 heavy 1
VL: ELVMTQTPSSVSAAVGGTVTINCQASQSISSYLAWYQQKPGQPPKLLIYYASTLASGVPSRFKGSGSGTEFTLTITGVQCDDAATYYCLGVYGYSFDDGIAFGGGTELEIKR
notes: Made from xi155D5 by limited papain digestion and protein A removal of Fc; Fabs were fully decapped; not shown: human IgG1 CH1 and hinge up to the papain cleavage site
B4: zu155D5-4 (antibody, human IgG1, kappa)
heavy: not shown
light: DIQMTQSPSTLSASVGDRVTITCQASQSISSYLAWYQQKPGKAPKLLIYYASTLASGVPSRFSGSGSGTEFTLTITGVQCDDAATYYCLGVYGYSFDDGIAFGGGTKVEIKRTVAAPSVFIFPPSDEQLKSGTASVVCLLNNFYPREAKVQWKVDNALQSGNSQESVTEQDSKDSTYSLSSTLTLSKADYEKHKVYACEVTHQGLSSPVTKSFNRGEC
notes: Humanized 155D5, human IgG1 kappa; Tested both protein A purified and decapped
B5: zu155D5-3 (antibody, human IgG1, kappa, V domains shown)
VH: QVQLVESGGGLVQPGGSLRLSCSASGFSLNSYAMIWVRQAPGKGLEYIGFITTGGTTYYADSVKGRFTISRDNSKNTLYLQMNSLRAEDTAVYYCARDRVKSYDDYGDLDAFEPWGQGTLVTVSS
VL: DIQMTQSPSTLSASVGDRVTITCQASQSISSYLAWYQQKPGKAPKLLIYYASTLASGVPSRFSGSGSGTEFTLTISSLQCDDAATYYCLGVYGYSFDDGIAFGGGTKVEIKR
notes: Humanized 155D5, human IgG1 kappa; Tested both protein A purified and decapped; also called zu155D5-CXXA
B6: zu155D5-5 (antibody, human IgG1, kappa, V domains shown)
VH: B5 VH
VL: B5 VL with S63K, S76T, S77G, L78V
notes: as for B4
B7: zu155D5-2 (antibody, human IgG1, kappa, V domains shown)
VH: B5 VH
VL: B5 VL with S76T, S77G, L78V, A83F
notes: as for B4
B8: zu155D5-6 (antibody, human IgG1, kappa)
heavy: not shown
light: B4 light with L11V, S14A, D17G, R18T
notes: as for B4
B9: zu155D5-1 (antibody, human IgG1, kappa, V domains shown)
VH: B5 VH
VL: B5 VL with A83F
notes: Humanized 155D5, human IgG1 kappa; Tested both protein A purified (Cys80 capped) and decapped; also called zu155D5-CXXF; zu155D5-1 (huVK1-5)
B10: zu155D5-7 (antibody, human IgG1, kappa)
heavy: not shown
light: B4 light with K107E, V108L
notes: as for B4
B11: 155D5 (rabbit anti-CA9 mAb) (antibody, V domains shown)
VH: B1 heavy 1
VL: ELVMTQTPSSVSAAVGGTVTINCQASQSISSYLAWYQQKPGQPPKLLIYYASTLASGVPSRFKGSGSGTEFTLTITGVQCDDAATYYCLGVYGYSFDDGIAFGGGTELEIK
notes: Parental rabbit IgG with rabbit constant regions (Cys80-Cys171 disulfide); also called rabbit 155D5 MAb

Molecular target: T1, human endosialin/TEM1 extracellular …
Assay: SPR, ligand TEM1-Fc, flow cell Fc4

| Kd [nM] | koff [s⁻¹] | kon [M⁻¹ s⁻¹] | Binder |
| --- | --- | --- | --- |
| 0.185 | 0.000189 | 1.02e+06 | B1 |
| 0.376 | 0.000326 | 865000 | B2 |

Each binder was assayed against T2, human CA9 (carbonic anhydrase IX) (human, UniProt Q16790 38-414) (assay: SPR, ligand CA9, flow cell Fc4).

| Kd [nM] | koff [s⁻¹] | kon [M⁻¹ s⁻¹] | Binder |
| --- | --- | --- | --- |
| 0.15 | 4.4e-05 | 294000 | B1 |
| 0.0499 | 2.59e-05 | 519000 | B3 |

What follows are binders tested against T2, human CA9 (carbonic anhydrase IX) (assay: BIAcore, summary of Table 13; reference xi155D5; told of the group of humanized variants).
Description: (§1) Antibody concentrations were adjusted to generate 30-40 RU signal when bound to the antigen. […] The sensor surface was washed by injecting HBS-P buffer for 1 min at a flow rate of 50 μL/min. To record the antigen association to the captured mAb, a series of increasing concentrations of antigen was injected for 60 sec at a flow rate of 50 μL/min. The dissociation of antigen was monitored for 30 min at the same flow rate. The sensor surface was regenerated by injecting 3 M MgCl₂ for 1 min and then 30 sec at a flow rate of 30 μL/min. Sensograms were analyzed with Biacore T100 Evaluation Software using a 1:1 Langmuir binding model.
(§2) xi155D5 and the humanized variants were purified by standard protein A chromatography or the decapping method, and their affinity was analyzed using BIAcore (Table 13).

| fold difference in KD against chimeric xi155D5 [fold] | Binder |
| --- | --- |
| < 2 | B4 |
| < 2 | B5 |
| < 2 | B6 |
| < 2 | B7 |
| < 2 | B8 |
| < 2 | B9 |
| < 2 | B10 |

These binders were tested against T2, human CA9 (carbonic anhydrase IX) (assay: BIAcore T100, mAb captured on anti-human IgG, antigen as analyte, 1:1 model; mAb purified by the decapping method (Decapped)).
Description: as §1, §2

| Kd [nM] | koff [s⁻¹] | kon [M⁻¹ s⁻¹] | Binder |
| --- | --- | --- | --- |
| 0.59 | 0.000378 | 641000 | B4 |
| 0.507 | 0.000351 | 726000 | B5 |
| 0.478 | 0.000273 | 572000 | B6 |
| 0.589 | 0.00027 | 458000 | B7 |
| 0.568 | 0.000319 | 558000 | B8 |
| 0.5 | 0.000355 | 770000 | B9 |
| 0.68 | 0.000319 | 485000 | B10 |

The binders below were run against T2, human CA9 (carbonic anhydrase IX) (assay: BIAcore T100, mAb captured on anti-human IgG, antigen as analyte, 1:1 model; mAb purified by protein A (ProA)).
Description: as §1, §2

| Kd [nM] | koff [s⁻¹] | kon [M⁻¹ s⁻¹] | Binder |
| --- | --- | --- | --- |
| 0.664 | 0.000382 | 577000 | B4 |
| 0.562 | 0.000401 | 727000 | B5 |
| 0.639 | 0.000373 | 587000 | B6 |
| 0.569 | 0.000376 | 663000 | B7 |
| 0.533 | 0.000477 | 898000 | B8 |
| 0.498 | 0.000495 | 1.01e+06 | B9 |
| 0.534 | 0.000458 | 869000 | B10 |

Molecular target: T1, human endosialin/TEM1 extracellular …
Assay: SPR, ligand TEM1-Fc, flow cell Fc3

| Kd [nM] | koff [s⁻¹] | kon [M⁻¹ s⁻¹] | Binder |
| --- | --- | --- | --- |
| 0.31 | 0.000257 | 829000 | B1 |
| 0.382 | 0.000329 | 862000 | B2 |

The binders below were run against T2, human CA9 (carbonic anhydrase IX) (assay: SPR, ligand CA9, flow cell Fc3).

| Kd [nM] | koff [s⁻¹] | kon [M⁻¹ s⁻¹] | Binder |
| --- | --- | --- | --- |
| 0.121 | 3.91e-05 | 322000 | B1 |
| 0.0383 | 2.19e-05 | 572000 | B3 |

These binders were tested against T2, human CA9 (carbonic anhydrase IX) (assay: SPR (BIAcore), biotin-CA9 captured on CAP chip, antibody 0-50 nM as analyte).
Description: To determine if chimerization, and therefore the loss of Cys80-Cys171 disulfide bond, results in structural perturbations leading to loss of antigen binding, the binding affinity of mAbs 155D5, xi155D5, 1-55-2, and xi1-55-2 by surface plasmon resonance was evaluated. Biotinylated ligand (biotin-hTEM1 for 1-55-2, biotin-CA9 for 155D5) was captured on a coated biotin CAP BIAcore chip (GE Healthcare, Piscataway, N.J.) using HBS-EP as running buffer. Final antigen capture levels were 130 RU and 280 RU, respectively, for biotin-TEM1 and biotin-CA9. Serial dilutions of antibody (120 μL of 0-50 nM) were passed over the ligand-coated chip. […] The chip surface was regenerated with 6 M GuHCl, 250 mM NaOH. Sensograms were double referenced and kinetic parameters were determined using BIAEvaluations software (ver. 4.1).

| Kd [nM] | koff [s⁻¹] | kon [M⁻¹ s⁻¹] | Binder |
| --- | --- | --- | --- |
| 0.041 | 2.1e-05 | 510000 | B11 |
